According to patent US10118947B2, “Modulation of structured polypeptide specificity” (BICYCLE THERAPEUTICS LIMITED, priority 2013, dated 2018):
Where two headings read alike, the source gives them in different places. Numbered stars: 1 amine (or outer) side, 2 acyl side, 3 side chain; on linkers, the order of the positions; unused ones are H or OH. Bridge positions count the residues as written; N and C are the ends. Square brackets hold non-standard residues; d marks the D form. Peptide text beside a SMILES is read from it. Gly(N-CH2CH2-imidazol-4-yl) = O=C(O)CNCCc1c[nH]cn1; TBMB = c1c(C[*:1])cc(C[*:3])cc1C[*:2]; Aze = O=C(O)[C@@H]1CCN1

Key:
[1] = Plasma stability / fragment profiling Method #2 (MALDI-TOF, 95% plasma), human plasma; type: in vitro ADME; settings: for Fragments (human plasma): peptide fragments observed after incubation in human plasma
Method: To obtain stability data more rapidly, peptides were also assessed in 95% plasma. Here, PBS was omitted, and a 1 mM peptide stock (in DMSO) was directly diluted into plasma (i.e. 2.5 uL stock into 47.5 uL plasma), giving a final concentration of 50 uM. 5 uL samples were taken at appropriate time points and frozen at −80 deg C. For analysis, the samples were defrosted, mixed with 15 uL of 1:1 acetonitrile:methanol, and centrifuged at 13 k for 5 min. 5 uL of the peptide-containing supernatant was aspirated and mixed with 30 mM ammonium bicarbonate in a 1:1 mixture of acetonitrile:H2O. 1 uL of this was then spotted on the MALDI plate and analysed as described above. As above, it should be noted that this is a qualitative assay serves to detect relative changes in plasma stability.
Ac-06-34-18(TMB)-NH2 Phe2 Tyr4 (referred to as wild type peptide) was subsequently subjected to human plasma, and analysed for fragments to appear over time. This was compared to the degradation profile observed in human plasma using the NMe-Arg5 derivative of 06-34-18 (FIGS. 18a and 18b). Fragmentation was determined according to Method #2.

human plasma Kallikrein [2] = target: T1, human plasma Kallikrein (Homo sapiens, UniProt P03952); assay: Functional enzyme inhibition assay with fluorogenic substrate Z-PheArg-AMC, human plasma Kallikrein; type: biochemical; settings: for Ki: read-out: Ki; for F (Kivar/KiWT): ratio of Ki to wild type
T1 construct: purchased Stratech, UK
T1 sequence (P03952 20-638): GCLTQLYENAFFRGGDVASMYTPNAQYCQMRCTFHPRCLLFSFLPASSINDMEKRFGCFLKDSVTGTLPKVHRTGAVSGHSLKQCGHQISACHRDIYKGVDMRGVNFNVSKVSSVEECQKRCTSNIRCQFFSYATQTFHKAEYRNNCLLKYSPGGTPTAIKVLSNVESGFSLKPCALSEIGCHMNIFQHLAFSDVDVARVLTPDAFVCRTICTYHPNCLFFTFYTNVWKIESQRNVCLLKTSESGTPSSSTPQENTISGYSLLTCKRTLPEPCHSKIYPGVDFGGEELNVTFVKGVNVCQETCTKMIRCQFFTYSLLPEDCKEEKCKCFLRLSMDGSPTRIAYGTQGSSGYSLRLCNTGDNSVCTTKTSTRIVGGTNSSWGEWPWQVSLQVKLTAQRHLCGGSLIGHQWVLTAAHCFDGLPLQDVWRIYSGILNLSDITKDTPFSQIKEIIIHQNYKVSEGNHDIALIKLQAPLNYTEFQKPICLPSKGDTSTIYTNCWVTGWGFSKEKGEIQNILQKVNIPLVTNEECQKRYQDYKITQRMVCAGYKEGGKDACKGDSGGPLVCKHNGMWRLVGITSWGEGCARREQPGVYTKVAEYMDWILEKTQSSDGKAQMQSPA
In short: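 Rates of AMC release (excitation 360 nm, emission 460 nm) from 100 μM final Z-PheArg-AMC, 4% DMSO, were taken over the linear phase, typically 5 to 45 minutes. IC50 from four-parameter non-linear regression; Ki also derived.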

human plasma Kallikrein [3] = target: T1, human plasma Kallikrein; assay: Phage selections against human plasma Kallikrein (abundance in selection output); type: binding; settings: Table 17; relative abundance in the total selection outputs
Method: Glycerol stocks of phage libraries were diluted to OD600=0.1 in 500 ml 2YT/chloramphenicol (30 μg/ml) cultures and phage were produced at 30° C. over night (15-16 hrs). Phage were purified and chemically modified as described in Heinis, et al., Nat Chem Biol 2009, 5 (7), 502-7 Biotinylated hPK (3 μg) (IHPKA, from human plasma, Innovative Research, Novi, Mich., USA) was incubated with 50 μl pre-washed magnetic streptavidin beads (Dynal, M-280 from Invitrogen, Paisley, UK) for 10 minutes at RT. Beads were washed 3 times prior to blocking with 0.5 ml washing buffer (10 mM Tris-Cl, pH 7.4, 150 mM NaCl, 10 mM MgCl2, 1 mM CaCl2) containing 1% BSA and 0.1% Tween 20 for 30 minutes at RT with rotation. […] Blocked beads were then mixed with the blocked chemically modified phage and incubated for 30 minutes on a rotating wheel at
RT. Beads were washed 8 times with washing buffer containing 0.1% Tween 20 and twice with washing buffer before incubation with 100 μl of 50 mM glycine, pH 2.2 for 5 minutes. Eluted phage were transferred to 50 μl of 1 M Tris-Cl, pH 8 for neutralization, incubated with 30 ml TG1 cells at OD600=0.4 for 90 minutes at 37° C. and the cells were plated on large 2YT/chloramphenicol plates. One or two additional rounds of panning were performed using the same procedures. In the second round of selection, neutravidin-coated magnetic beads were used to prevent the enrichment of streptavidin-specific peptides. The neutravidin beads were prepared by reacting 0.8 mg neutravidin (Pierce, Rockford, Ill., USA) with 0.5 ml tosyl-activated magnetic beads (Dynal, M-280 from Invitrogen, Paisley, UK) according to the supplier's instructions.
The WPAR (SEQ ID No. 19) motif identified from Example 1 was analysed in the context of the 06-34-03 peptide, in order to identify alternatives or improvements to the WPAR motif. A library was constructed where positions 1, 6, 7, 8, 9 &10 of 06-34-03 were fixed and positions 2, 3, 4 & 5 were randomised (see ‘Randomisation of peptide domains—Library construction’ in Methods above). Selections against human plasma Kallikrein were performed at a variety of stringencies (see Phage selections' in Methods above). All output sequences were identified and analysed for target binding (see ‘Randomisation of peptide domains—Assay of binding of individual clones’ in Methods above). Table 17 lists each unique sequence, its relative abundance in the selection output (frequency), and a rank number according to target binding strength.

[4] = Plasma stability profiling Method #1 (MALDI-TOF, 35% plasma), rat plasma; type: in vitro ADME; settings: method #1
In short: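 Qualitative test: 200 µM peptide incubated at 37 °C in 35% rat or human citrated plasma supplemented with PBS, sampled at 0, 3, 24 h then daily up to 10 days. Parent mass tracked by MALDI-TOF; value is time until parent peptide no longer detectable.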

[5] = Table 3b, D-amino acid scan in Loop2
[6] = Table 3a, Alanine scan in Loop2

| Molecule | FREQUENCY (human plasma Kallikrein [3]) | other results |
| --- | --- | --- |
| CC(=O)N[C@H]1CSCc2cc3cc(c2)CSC[C@H](NC(=O)[C@H](CCCNC(=N)N)NC(=O)[C@H](Cc2ccc(O)cc2)NC(=O)[C@@H]2CCCN2C(=O)[C@H](Cc2ccccc2)NC(=O)[C@H](CO)NC1=O)C(=O)N[C@@H](CC(C)C)C(=O)N[C@H](Cc1c[nH]cn1)C(=O)N[C@@H](CCC(N)=O)C(=O)N[C@@H](CC(=O)O)C(=O)N[C@@H](CC(C)C)C(=O)N[C@H](C(N)=O)CSC3 [Ac-(06-34-18) Phe2 Tyr4 D-His7] (Ac-CSFPYRCL[dH]QDLC-NH2; linker 1-7-13 via TBMB) |  | Fragments (human plasma) ([1]; Table 3b): -R, -FPYR; Ki (human plasma Kallikrein [2]; [5]): 129 nM; F (Kivar/KiWT) (human plasma Kallikrein [2]; Table 3b): 308 |
| CC(=O)N[C@H]1CSCc2cc3cc(c2)CSC[C@H](NC(=O)[C@H](CCCNC(=N)N)NC(=O)[C@H](Cc2ccc(O)cc2)NC(=O)[C@@H]2CCCN2C(=O)[C@H](Cc2ccccc2)NC(=O)[C@H](CO)NC1=O)C(=O)N[C@@H](CC(C)C)C(=O)N[C@@H](C)C(=O)N[C@@H](CCC(N)=O)C(=O)N[C@@H](CC(=O)O)C(=O)N[C@@H](CC(C)C)C(=O)N[C@H](C(N)=O)CSC3 [Ac-(06-34-18) Phe2 Tyr4 Ala7] (Ac-CSFPYRCLAQDLC-NH2; linker 1-7-13 via TBMB) |  | Fragments (human plasma) ([1]; Table 3a): -R; Kd (human plasma Kallikrein [2]): 23 nM; reduction in potency/affinity compared to wildtype (human plasma Kallikrein [2]): 56 fold; Ki (human plasma Kallikrein [2]; [6]): 23.4 nM; F (Kivar/KiWT) (human plasma Kallikrein [2]; Table 3a): 56 |
| CC(=O)N[C@H]1CSCc2cc3cc(c2)CSC[C@H](NC(=O)[C@H](CCCNC(=N)N)NC(=O)[C@H](Cc2ccc(O)cc2)NC(=O)[C@@H]2CCCN2C(=O)[C@H](Cc2ccccc2)NC(=O)[C@H](CO)NC1=O)C(=O)N[C@H](CC(C)C)C(=O)N[C@@H](Cc1c[nH]cn1)C(=O)N[C@@H](CCC(N)=O)C(=O)N[C@@H](CC(=O)O)C(=O)N[C@@H](CC(C)C)C(=O)N[C@H](C(N)=O)CSC3 [Ac-(06-34-18) Phe2 Tyr4 D-Leu6] (Ac-CSFPYRC[dL]HQDLC-NH2; linker 1-7-13 via TBMB) |  | Fragments (human plasma) ([1]; Table 3b): -R, -FPYR; Ki (human plasma Kallikrein [2]; [5]): 9080 nM; F (Kivar/KiWT) (human plasma Kallikrein [2]; Table 3b): 21615 |
| CC(=O)N[C@H]1CSCc2cc3cc(c2)CSC[C@H](NC(=O)[C@H](CCCNC(=N)N)NC(=O)[C@H](Cc2ccc(O)cc2)NC(=O)[C@@H]2CCCN2C(=O)[C@H](Cc2ccccc2)NC(=O)[C@H](CO)NC1=O)C(=O)N[C@@H](C)C(=O)N[C@@H](Cc1c[nH]cn1)C(=O)N[C@@H](CCC(N)=O)C(=O)N[C@@H](CC(=O)O)C(=O)N[C@@H](CC(C)C)C(=O)N[C@H](C(N)=O)CSC3 [Ac-(06-34-18) Phe2 Tyr4 Ala6] (Ac-CSFPYRCAHQDLC-NH2; linker 1-7-13 via TBMB) |  | Fragments (human plasma) ([1]; Table 3a): -LHQ, -R; Ki (human plasma Kallikrein [2]; [6]): 1.9 nM; F (Kivar/KiWT) (human plasma Kallikrein [2]; Table 3a): 5 |
| CSYPYRCTHQDLC | 2 |  |
| CC(=O)N[C@H]1CSCc2cc3cc(c2)CSC[C@H](NC(=O)[C@H](CCCNC(=N)N)NC(=O)[C@H](Cc2ccc(O)cc2)NC(=O)[C@@H]2CCCN2C(=O)[C@H](Cc2ccccc2)NC(=O)[C@H](CO)NC1=O)C(=O)N[C@@H](CC(C)C)C(=O)N[C@@H](Cc1c[nH]cn1)C(=O)N[C@H](CCC(N)=O)C(=O)N[C@@H](CC(=O)O)C(=O)N[C@@H](CC(C)C)C(=O)N[C@H](C(N)=O)CSC3 [Ac-(06-34-18) Phe2 Tyr4 D-Gln8] (Ac-CSFPYRCLH[dQ]DLC-NH2; linker 1-7-13 via TBMB) |  | Fragments (human plasma) ([1]; Table 3b): -R, -FPYR; Ki (human plasma Kallikrein [2]; [5]): 317 nM; F (Kivar/KiWT) (human plasma Kallikrein [2]; Table 3b): 755 |
| CSFPIRCTHQDLC | 1 |  |
| CC(=O)N[C@H]1CSCc2cc3cc(c2)CSC[C@H](NC(=O)[C@H](CCCNC(=N)N)NC(=O)[C@H](C)NC(=O)[C@@H]2CCN2C(=O)[C@H](Cc2c[nH]c4ccccc24)NC(=O)[C@H](CO)NC1=O)C(=O)N[C@@H](CC(C)C)C(=O)N[C@@H](Cc1c[nH]cn1)C(=O)N[C@@H](CCC(N)=O)C(=O)N[C@@H](CC(=O)O)C(=O)N[C@@H](CC(C)C)C(=O)N[C@H](C(N)=O)CSC3 [Ac-(06-34-18) Aze3] (Ac-CSW[Aze]ARCLHQDLC-NH2; linker 1-7-13 via TBMB) |  | affinity surpassing that of wildtype by a factor (human plasma Kallikrein [2]): 3; Observable in rat plasma, for days ([4]; Table 13): 2 days |
| CSHPFRCTHQDLC | 1 |  |
| CSWPFRCTHQDLC | 7 |  |
| CSWHARCTHQDLC | 1 |  |
| CSFLYKCTHQDLC | 2 |  |
| CSYPFRCTHQDLC | 1 |  |
| CSLPIRCTHQDLC | 1 |  |
| CRFPFKCTHQDLC | 1 |  |
| CC(=O)N[C@H]1CSCc2cc3cc(c2)CSC[C@H](NC(=O)[C@H](CCCNC(=N)N)NC(=O)[C@H](C)NC(=O)[C@@H]2CCCN2C(=O)[C@H](Cc2ccccc2)NC(=O)[C@H](CO)NC1=O)C(=O)N[C@@H](CC(C)C)C(=O)N[C@@H](Cc1c[nH]cn1)C(=O)N[C@@H](CCC(N)=O)C(=O)N[C@@H](CC(=O)O)C(=O)N[C@@H](CC(C)C)C(=O)N[C@H](C(N)=O)CSC3 [Ac-(06-34-18) FPAR] (Ac-CSFPARCLHQDLC-NH2; linker 1-7-13 via TBMB) |  | reduction in potency/affinity compared to wildtype (human plasma Kallikrein [2]): 40 fold; Observable in rat plasma, for days ([4]; Table 21): 2 days |
| CSLFDHCTHQDLC | 1 |  |
| CSFPFWCTHQDLC | 1 |  |
| CSFPWRCTHQDLC | 1 |  |
| CC(=O)N[C@H]1CSCc2cc3cc(c2)CSC[C@H](NC(=O)[C@H](CCCNC(=N)N)NC(=O)[C@H](Cc2ccc(O)cc2)NC(=O)[C@@H]2CCCN2C(=O)[C@H](Cc2ccccc2)NC(=O)[C@H](CO)NC1=O)C(=O)N[C@@H](CC(C)C)C(=O)N(CCc1c[nH]cn1)CC(=O)N[C@@H](CCC(N)=O)C(=O)N[C@@H](CC(=O)O)C(=O)N[C@@H](CC(C)C)C(=O)N[C@H](C(N)=O)CSC3 [Ac-(06-34-18) Phe2 Tyr4 N-His] (Ac-CSFPYRCL[Gly(N-CH2CH2-imidazol-4-yl)]QDLC-NH2; linker 1-7-13 via TBMB) |  | degradation / fragments in human plasma (in words) ([1]; running text and figure legends): significantly enhanced stability in loop2 |
| CSHRRWCTHQDLC | 1 |  |
| CSWAARCTHQDLC | 1 |  |
| CSYPWRCTHQDLC | 1 |  |
| CSWPARCTHQDLC | 24 |  |
| CSIPFKCTHQDLC | 1 |  |
| CSLPFKCTHQDLC | 1 |  |
| CSFPYRCTHQDLC | 12 |  |
| CSFPYKCTHQDLC | 1 |  |
| CSWPYKCTHQDLC | 1 |  |
| CSWWARCTHQDLC | 1 |  |

Second part, led by results:

| FREQUENCY (human plasma Kallikrein [3]) | Molecule | other results |
| --- | --- | --- |
| 1 | CSQVVGCTHQDLC |  |
| 51 | CSWPSRCTHQDLC |  |
| 1 | CSWSYRCTHQDLC |  |
| 3 | CSWPYRCTHQDLC |  |
| 1 | CSWQARCTHQDLC |  |
| 8 | CSWLARCTHQDLC |  |
| 2 | CSYPIRCTHQDLC |  |
| 4 | CSFPFKCTHQDLC |  |
| 10 | CSWSARCTHQDLC |  |
| 2 | CSMPYRCTHQDLC |  |
| 1 | CSFMYKCTHQDLC |  |
| 1 | CSFSYKCTHQDLC |  |
| 2 | CSHPYRCTHQDLC |  |
